Patent US11161908

Target: human BAFF-R-GFP fusion protein expressed on the surface of mouse fibroblast (L) cells, clone D2C (human) (UniProt Q96RJ3)
Test: cell ELISA of hybridoma supernatant on (h)BAFF-R-expressing cells, anti-mouse IgG-HRP; same clone on parental L cell: 0.102

B1: mouse monoclonal antibody from hybridoma Clone 55 (antibody, V domains shown)
VH: QVTLKESGPGILKPSQTLSLTCSFSGFSLSTSGMGVGWIRQPSGKGLEWLAHIWWDDDKYYNSSLKSHLTISKDTSRNQVFLKITSVDTADTATYYCARSFGYGLDYWGQGTTLTVSS
VL: DIQMTQTTSSLSASLGDRVTISCSASQDISNYLNWYQQKPDGTVKLLIYYTSSLHSGVPSRFSGSGSGTDYSLTISSLEPEDIATYYCHQFSELPWTFGGGTKLEIK
- OD 450 nm: 1.07 OD 450 nm
